Among the data in publication PMC11865535 (Nature Communications, 2025) are koff values, retold here.

In the assay the target is CUL1^FlAsH preassembled with SKP1·SKP2 (UniProt Q13616;P62877;P63208;Q13309, FlAsH fluorophore on the C-terminal tetracysteine tag). The experiment in a line: FRET or BRET. On the technique in general: Bioluminescence resonance energy transfer reports proximity on the nanometre scale.
Sequence of CUL1^FlAsH preassembled with SKP1·SKP2 (Q13616 whole entry, chain 1 of 3): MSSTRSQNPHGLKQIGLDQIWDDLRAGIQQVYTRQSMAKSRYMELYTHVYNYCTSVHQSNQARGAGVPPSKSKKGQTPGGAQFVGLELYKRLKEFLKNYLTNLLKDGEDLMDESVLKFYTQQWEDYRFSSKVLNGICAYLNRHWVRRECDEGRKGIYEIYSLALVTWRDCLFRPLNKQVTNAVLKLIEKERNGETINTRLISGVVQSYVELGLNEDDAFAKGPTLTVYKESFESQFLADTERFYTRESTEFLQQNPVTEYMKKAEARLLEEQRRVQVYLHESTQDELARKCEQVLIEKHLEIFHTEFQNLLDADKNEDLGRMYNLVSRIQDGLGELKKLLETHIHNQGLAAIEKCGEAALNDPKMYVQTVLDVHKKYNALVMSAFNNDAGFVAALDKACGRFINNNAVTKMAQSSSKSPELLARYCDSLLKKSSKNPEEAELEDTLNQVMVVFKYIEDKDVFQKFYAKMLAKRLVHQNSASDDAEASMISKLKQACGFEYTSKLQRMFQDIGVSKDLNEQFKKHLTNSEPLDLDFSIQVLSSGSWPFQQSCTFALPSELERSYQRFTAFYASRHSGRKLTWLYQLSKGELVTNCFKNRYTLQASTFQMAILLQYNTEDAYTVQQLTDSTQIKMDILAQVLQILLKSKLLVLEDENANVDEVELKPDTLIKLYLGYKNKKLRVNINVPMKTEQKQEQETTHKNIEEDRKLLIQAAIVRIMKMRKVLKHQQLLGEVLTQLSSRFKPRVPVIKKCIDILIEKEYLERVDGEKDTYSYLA
Sequence of CUL1^FlAsH preassembled with SKP1·SKP2 (P63208 whole entry, chain 3 of 3): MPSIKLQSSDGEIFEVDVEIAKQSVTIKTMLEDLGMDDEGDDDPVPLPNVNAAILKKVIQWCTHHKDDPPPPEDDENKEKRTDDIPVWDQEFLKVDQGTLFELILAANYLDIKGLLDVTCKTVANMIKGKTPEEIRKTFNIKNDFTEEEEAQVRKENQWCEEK
Sequence of CUL1^FlAsH preassembled with SKP1·SKP2 (Q13309 whole entry, chain 4 of 3): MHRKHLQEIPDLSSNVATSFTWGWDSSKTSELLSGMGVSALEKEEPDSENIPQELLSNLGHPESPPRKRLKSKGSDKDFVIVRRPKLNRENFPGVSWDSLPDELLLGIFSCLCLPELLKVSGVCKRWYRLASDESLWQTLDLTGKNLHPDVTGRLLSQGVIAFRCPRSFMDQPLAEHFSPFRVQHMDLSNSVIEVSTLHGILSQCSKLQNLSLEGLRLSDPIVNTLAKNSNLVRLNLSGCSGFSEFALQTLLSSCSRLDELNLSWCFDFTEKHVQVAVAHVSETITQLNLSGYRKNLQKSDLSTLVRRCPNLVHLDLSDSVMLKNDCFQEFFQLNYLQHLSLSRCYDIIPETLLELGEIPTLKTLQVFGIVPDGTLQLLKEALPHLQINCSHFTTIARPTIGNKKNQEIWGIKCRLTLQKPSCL

B1: ^CFPCAND1 (natural protein)
chain: MASASYHISNLLEKMTSSDKDFRFMATNDLMTELQKDSIKLDDDSERKVVKMILKLLEDKNGEVQNLAVKCLGPLVSKVKEYQVETIVDTLCTNMLSDKEQLRDISSIGLKTVIGELPPASSGSALAANVCKKITGRLTSAIAKQEDVSVQLEALDIMADMLSRQGGLLVNFHPSILTCLLPQLTSPRLAVRKRTIIALGHLVMSCGNIVFVDLIEHLLSELSKNDSMSTTRTYIQCIAAISRQAGHRIGEYLEKIIPLVVKFCNVDDDELREYCIQAFESFVRRCPKEVYPHVSTIINICLKYLTYDPNYNYDDEDEDENAMDADGGDDDDQGSDDEYSDDDDMSWKVRRAAAKCLDAVVSTRHEMLPEFYKTVSPALISRFKEREENVKADVFHAYLSLLKQTRPVQSWLCDPDAMEQGETPLTMLQSQVPNIVKALHKQMKEKSVKTRQCCFNMLTELVNVLPGALTQHIPVLVPGIIFSLNDKSSSSNLKIDALSCLYVILCNHSPQVFHPHVQALVPPVVACVGDPFYKITSEALLVTQQLVKVIRPLDQPSSFDATPYIKDLFTCTIKRLKAADIDQEVKERAISCMGQIICNLGDNLGSDLPNTLQIFLERLKNEITRLTTVKALTLIAGSPLKIDLRPVLGEGVPILASFLRKNQRALKLGTLSALDILIKNYSDSLTAAMIDAVLDELPPLISESDMHVSQMAISFLTTLAKVYPSSLSKISGSILNELIGLVRSPLLQGGALSAMLDFFQALVVTGTNNLGYMDLLRMLTGPVYSQSTALTHKQSYYSIAKCVAALTRACPKEGPAVVGQFIQDVKNSRSTDSIRLLALLSLGEVGHHIDLSGQLELKSVILEAFSSPSEEVKSAASYALGSISVGNLPEYLPFVLQEITSQPKRQYLLLHSLKEIISSASVVGLKPYVENIWALLLKHCECAEEGTRNVVAECLGKLTLIDPETLLPRLKGYLISGSSYARSSVVTAVKFTISDHPQPIDPLLKNCIGDFLKTLEDPDLNVRRVALVTFNSAAHNKPSLIRDLLDTVLPHLYNETKVRKELIREVEMGPFKHTVDDGLDIRKAAFECMYTLLDSCLDRLDIFEFLNHVEDGLKDHYDIKMLTFLMLVRLSTLCPSAVLQRLDRLVEPLRATCTTKVKANSVKQEFEKQDELKRSAMRAVAALLTIPEAEKSPLMSEFQSQISSNPELAAIFESIQKDSSSTNLESMDTS
By koff is commonly meant the first-order rate constant of dissociation. The low end stands for a long-lived complex, the high end for a short-lived complex. B1: the koff is 2.5 s⁻¹.

B2: ^CFPCAND2 (natural protein)
chain: MSTAAFHISSLLEKMTSSDKDFRFMATSDLMSELQKDSIQLDEDSERKVVKMLLRLLEDKNGEVQNLAVKCLGPLVVKVKEYQVETIVDTLCTNMRSDKEQLRDIAGIGLKTVLSELPPAATGSGLATNVCRKITGQLTSAIAQQEDVAVQLEALDILSDMLSRLGVPLGAFHASLLHCLLPQLSSPRLAVRKRAVGALGHLAAACSTDLFVELADHLLDRLPGPRVPTSPTAIRTLIQCLGSVGRQAGHRLGAHLDRLVPLVEDFCNLDDDELRESCLQAFEAFLRKCPKEMGPHVPNVTSLCLQYIKHDPNYNYDSDEDEEQMETEDSEFSEQESEDEYSDDDDMSWKVRRAAAKCIAALISSRPDLLPDFHCTLAPVLIRRFKEREENVKADVFTAYIVLLRQTQPPKGWLEAMEEPTQTGSNLHMLRGQVPLVVKALQRQLKDRSVRARQGCFSLLTELAGVLPGSLAEHMPVLVSGIIFSLADRSSSSTIRMDALAFLQGLLGTEPAEAFHPHLPILLPPVMACVADSFYKIAAEALVVLQELVRALWPLHRPRMLDPEPYVGEMSAVTLARLRATDLDQEVKERAISCMGHLVGHLGDRLGDDLEPTLLLLLDRLRNEITRLPAIKALTLVAVSPLQLDLQPILAEALHILASFLRKNQRALRLATLAALDALAQSQGLSLPPSAVQAVLAELPALVNESDMHVAQLAVDFLATVTQAQPASLVEVSGPVLSELLRLLRSPLLPAGVLAAAEGFLQALVGTRPPCVDYAKLISLLTAPVYEQAVDGGPGLHKQVFHSLARCVAALSAACPQEAASTASRLVCDARSPHSSTGVKVLAFLSLAEVGQVAGPGHQRELKAVLLEALGSPSEDVRAAASYALGRVGAGSLPDFLPFLLEQIEAEPRRQYLLLHSLREALGAAQPDSLKPYAEDIWALLFQRCEGAEEGTRGVVAECIGKLVLVNPSFLLPRLRKQLAAGRPHTRSTVITAVKFLISDQPHPIDPLLKSFIGEFMESLQDPDLNVRRATLAFFNSAVHNKPSLVRDLLDDILPLLYQETKIRRDLIREVEMGPFKHTVDDGLDVRKAAFECMYSLLESCLGQLDICEFLNHVEDGLKDHYDIRMLTFIMVARLATLCPAPVLQRVDRLIEPLRATCTAKVKAGSVKQEFEKQDELKRSAMRAVAALLTIPEVGKSPIMADFSSQIRSNPELAALFESIQKDSASAPSTDSMELS
In the case of B2, the koff came to 4.4 s⁻¹.
